Results as given in patent publication US20100135997A1.

Molecular target: Class I pMHC on target cells (Mel 624)
Assay: cell-based or functional assay

Row | Binder | IC50 of inhibition of T cell activation (IFN-γ ELISPOT; Mel 624 target cells, MART-1 specific T cell clone) [pM]
1 | c138 Fc dimer (polypeptide homodimer Fc fusion) (Fc fusion) HLPKPTLWAEPGSVITMDQPVTLRCQGGQETQQYRLYREKKTAPWITRIPQELVKKGQFPIPSITWEHAGRYRCYYGSDTRQWSASSDPLELVVTGVYIKPTLSAQPSPVVNSGGNVTLQCDSPFQADGFILCKEGEDDHPQCLNSQPHARGSSRAIFSVGPVSPSRRWRYRCYAYDSNSPYEWSLPSDLLELDVDGRMDPSRSVECPPCPAPPVAGPSVFLFPPKPKDTLMISRTPEVTCVVVDVSHEDPEVKFNWYVDGVEVHNAKTKPREEQYNSTYRVVSVLTVLHQDWLNGKEYKCKVSNKGLPSSIEKTISKAKGQPREPQVYTLPPSREEMTKNQVSLTCLVKGFYPSDIAVEWESNGQPENNYKTTPPVLDSDGSFFLYSKLTVDKSRWQQGNVFSCSVMHEGLHNHYTQKSLSLSPGK | 400
2 | c132 Fc dimer (ILT Fc fusion homodimer) (Fc fusion) HLPKPTLWAEPGSVITMDQPVTLRCQGGQETQEYRLYREKKTAPWITRIPQELVKKGQFPIPSITWEHAGRYRCYYGSDTSQWSASSDPLELVVTGVYIKPTLSAQPSPVVNSGGNVTLQCDSPFQADGFILCKEGEDEHPQCLNSQPHARGSSRAIFSVGPVSPSRRWWYRCYAYMSWSPYEWSLPSDLLELDVDGRMDPSRSVECPPCPAPPVAGPSVFLFPPKPKDTLMISRTPEVTCVVVDVSHEDPEVKFNWYVDGVEVHNAKTKPREEQYNSTYRVVSVLTVLHQDWLNGKEYKCKVSNKGLPSSIEKTISKAKGQPREPQVYTLPPSREEMTKNQVSLTCLVKGFYPSDIAVEWESNGQPENNYKTTPPVLDSDGSFFLYSKLTVDKSRWQQGNVFSCSVMHEGLHNHYTQKSLSLSPGK | 450
3 | c64 Fc dimer (ILT Fc fusion homodimer) (Fc fusion) HLPKPTLWAEPGSVITMDQPVTLRCQGGQETQQYRLYREKKTAPWITRIPQELVKKGQFPIPSITWEHAGRYRCYYGSDTRQWSASSDPLELVVTGVYIKPTLSAQPSPVVNSGGNVTLQCDSQVAFDGFILCKEGEDDHPQCLNSQPHARGSSRAIFSVGPVSPSRRWRYRCYAYDSNSPYEWSLPSDLLELDVDGRMDPSRSVECPPCPAPPVAGPSVFLFPPKPKDTLMISRTPEVTCVVVDVSHEDPEVKFNWYVDGVEVHNAKTKPREEQYNSTYRVVSVLTVLHQDWLNGKEYKCKVSNKGLPSSIEKTISKAKGQPREPQVYTLPPSREEMTKNQVSLTCLVKGFYPSDIAVEWESNGQPENNYKTTPPVLDSDGSFFLYSKLTVDKSRWQQGNVFSCSVMHEGLHNHYTQKSLSLSPGK | 2300
